Measurements reported in patent publication US20160144050A1 (PHAROSGEN, published 2016).
Primed or numbered codes have the meaning given here. No end group written: not given here. *: point of attachment. Hexanoyl(6-maleimido) = O=C1C=CC(=O)N1CCCCCC(=O)*; PABC′ = p-aminobenzylcarbamate

What was measured:
[1] = target: HSA-maleimide-KGDEVD-PABC-doxorubicin (SEQ ID NO: 28)
[2] = target: T1, human serum albumin (HSA) (human, UniProt P02768 25-609); experiment: analytical HPLC; 100 µM conjugate with 700 µM purchased HSA in PBS, room temperature; covalent binding
T1 construct: also called commercially available human serum albumin; human serum albumin in human plasma
Description: A human serum albumin (HSA) solution was prepared in PBS at final concentration of 700 μM. […] The samples were subjected to analytical HPLC (see FIG. 21).

Row | binding result [2] | Binder | HPLC monitored cleavage; liberation of free doxorubicin [1]
1 | – | recombinant human caspase-3 (protein) SGISLDNSYKMDYPEMGLCIIINNKNFHKSTGMTSRSGTDVDAANLRETFRNLKYEVRNKNDLTREEIVELMRDVSKEDHSKRSSFVCVLLSHGEEGIIFGTNGPVDLKKITNFFRGDRCRSLTGKPKLFIIQACRGTELDCGIETDSGVDDDMACHKIPVEADFLYAYSTAPGYYSWRNSKDGSWFIQSLCAMLKQYADKLEFMHILTRVNRKVATEFESFSFDATFHAKKQIPCIVSMLTKELYFYH | The free doxorubicin was completely liberated from the HSA-maleimide-KGDEVD-PABC-doxorubicin (SEQ ID NO: 28) conjugate within 1 hour
2 | binds | K(Hexanoyl(6-maleimido))GDEVD-{PABC′-doxorubicin} (not fully specified (N-terminus), Peptide-drug prodrug conjugate) [maleimide-KGDEVD-PABC-doxorubicin (SEQ ID NO: 10)] | –
